Columns and labels:
[1] = biological target: rhNav1.7α + β1-β2-β3 (rhesus Nav1.7α co-expressed with Navβ1, Navβ2 and Navβ3) (rhesus monkey); assay: FACS, periplasmic extract, CHO Flp-In cells; SD MFI 0
[2] = biological target: muNav1.7α (murine Nav1.7α) (murine) (UniProt Q62205); assay: FACS, periplasmic extract, HEK Jmp-In cells; SD MFI 5
[3] = biological target: rhNav1.7α + β1-β2-β3 (rhesus Nav1.7α co-expressed with Navβ1, Navβ2 and Navβ3) (rhesus monkey); assay: FACS, periplasmic extract, CHO Flp-In cells; SD MFI 53
[4] = biological target: rhNav1.7α + β1-β2-β3 (rhesus Nav1.7α co-expressed with Navβ1, Navβ2 and Navβ3) (rhesus monkey); assay: FACS, periplasmic extract, CHO Flp-In cells; SD MFI 49
[5] = biological target: rhNav1.7α + β1-β2-β3 (rhesus Nav1.7α co-expressed with Navβ1, Navβ2 and Navβ3) (rhesus monkey); assay: FACS, periplasmic extract, CHO Flp-In cells; SD MFI 20
[6] = biological target: muNav1.7α (murine Nav1.7α) (murine) (UniProt Q62205); assay: FACS, periplasmic extract, HEK Jmp-In cells; SD MFI 61
[7] = biological target: rhNav1.7α + β1-β2-β3 (rhesus Nav1.7α co-expressed with Navβ1, Navβ2 and Navβ3) (rhesus monkey); assay: FACS, periplasmic extract, CHO Flp-In cells; SD MFI 4
[8] = biological target: rhNav1.7α + β1-β2-β3 (rhesus Nav1.7α co-expressed with Navβ1, Navβ2 and Navβ3) (rhesus monkey); assay: FACS, periplasmic extract, CHO Flp-In cells; SD MFI 34
[9] = biological target: rhNav1.7α + β1-β2-β3 (rhesus Nav1.7α co-expressed with Navβ1, Navβ2 and Navβ3) (rhesus monkey); assay: FACS, periplasmic extract, CHO Flp-In cells; SD MFI 22
[10] = biological target: muNav1.7α (murine Nav1.7α) (murine) (UniProt Q62205); assay: FACS, periplasmic extract, HEK Jmp-In cells; SD MFI 3361
[11] = biological target: rhNav1.7α + β1-β2-β3 (rhesus Nav1.7α co-expressed with Navβ1, Navβ2 and Navβ3) (rhesus monkey); assay: FACS, periplasmic extract, CHO Flp-In cells; SD MFI 2
[12] = biological target: rhNav1.7α + β1-β2-β3 (rhesus Nav1.7α co-expressed with Navβ1, Navβ2 and Navβ3) (rhesus monkey); assay: FACS, periplasmic extract, CHO Flp-In cells; SD MFI 15
[13] = biological target: rhNav1.7α + β1-β2-β3 (rhesus Nav1.7α co-expressed with Navβ1, Navβ2 and Navβ3) (rhesus monkey); assay: FACS, periplasmic extract, CHO Flp-In cells; SD MFI 13
[14] = biological target: muNav1.7α (murine Nav1.7α) (murine) (UniProt Q62205); assay: FACS, periplasmic extract, HEK Jmp-In cells; SD MFI 24
[15] = biological target: muNav1.7α (murine Nav1.7α) (murine) (UniProt Q62205); assay: FACS, periplasmic extract, HEK Jmp-In cells; SD MFI 175
[16] = biological target: rhNav1.7α + β1-β2-β3 (rhesus Nav1.7α co-expressed with Navβ1, Navβ2 and Navβ3) (rhesus monkey); assay: FACS, periplasmic extract, CHO Flp-In cells; SD MFI 18
[17] = biological target: muNav1.7α (murine Nav1.7α) (murine) (UniProt Q62205); assay: FACS, periplasmic extract, HEK Jmp-In cells; SD MFI 23
[18] = biological target: rhNav1.7α + β1-β2-β3 (rhesus Nav1.7α co-expressed with Navβ1, Navβ2 and Navβ3) (rhesus monkey); assay: FACS, periplasmic extract, CHO Flp-In cells; SD MFI 33

B1: F0103464B09 N99R library variant (VHH, name in Kabat numbering)
VHH: EVQLVESGGGLVQPGGSLRLSCATTSRAFIRDVFTGWYRRVPGKERELVARIYNGGNTNYADFAKGRFSISRDNAKKMVTLRMSNLKPEDTGVYYCLFSGTIRTGREYRSGDYWGQGTLVTVSS
With B1 the Mean MFI [1] was 572 MFI and the Mean MFI [2] was 975 MFI.

B2: F0103464B09 T100Q library variant (VHH, name in Kabat numbering)
VHH: EVQLVESGGGLVQPGGSLRLSCATTSRAFIRDVFTGWYRRVPGKERELVARIYNGGNTNYADFAKGRFSISRDNAKKMVTLRMSNLKPEDTGVYYCLFSGTINQGREYRSGDYWGQGTLVTVSS
With B2 the Mean MFI [3] was 650 MFI.

B3: F0103464B09 T100R library variant (VHH, name in Kabat numbering)
VHH: EVQLVESGGGLVQPGGSLRLSCATTSRAFIRDVFTGWYRRVPGKERELVARIYNGGNTNYADFAKGRFSISRDNAKKMVTLRMSNLKPEDTGVYYCLFSGTINRGREYRSGDYWGQGTLVTVSS
Binder B3 has a Mean MFI [4] of 626 MFI.

B4: F0103464B09 N99Y library variant (VHH, name in Kabat numbering)
VHH: EVQLVESGGGLVQPGGSLRLSCATTSRAFIRDVFTGWYRRVPGKERELVARIYNGGNTNYADFAKGRFSISRDNAKKMVTLRMSNLKPEDTGVYYCLFSGTIYTGREYRSGDYWGQGTLVTVSS
B4 gave a Mean MFI [5] of 490 MFI and a Mean MFI [6] of 936 MFI.

B5: F0103464B09 T100H library variant (VHH, name in Kabat numbering)
VHH: EVQLVESGGGLVQPGGSLRLSCATTSRAFIRDVFTGWYRRVPGKERELVARIYNGGNTNYADFAKGRFSISRDNAKKMVTLRMSNLKPEDTGVYYCLFSGTINHGREYRSGDYWGQGTLVTVSS
Work on B5 yielded a Mean MFI [7] of 689 MFI.

B6: F0103464B09 T100M library variant (VHH, name in Kabat numbering)
VHH: EVQLVESGGGLVQPGGSLRLSCATTSRAFIRDVFTGWYRRVPGKERELVARIYNGGNTNYADFAKGRFSISRDNAKKMVTLRMSNLKPEDTGVYYCLFSGTINMGREYRSGDYWGQGTLVTVSS
B6 was tested, and the Mean MFI [8] was 585 MFI.

B7: F0103464B09 N99T library variant (VHH, name in Kabat numbering)
VHH: EVQLVESGGGLVQPGGSLRLSCATTSRAFIRDVFTGWYRRVPGKERELVARIYNGGNTNYADFAKGRFSISRDNAKKMVTLRMSNLKPEDTGVYYCLFSGTITTGREYRSGDYWGQGTLVTVSS
B7 was tested, and the Mean MFI [9] was 839 MFI.

B8: F0103464B09 N99W library variant (VHH, name in Kabat numbering)
VHH: EVQLVESGGGLVQPGGSLRLSCATTSRAFIRDVFTGWYRRVPGKERELVARIYNGGNTNYADFAKGRFSISRDNAKKMVTLRMSNLKPEDTGVYYCLFSGTIWTGREYRSGDYWGQGTLVTVSS
Binder B8 has a Mean MFI [10] of 3320 MFI and a Mean MFI [11] of 530 MFI.

B9: F0103464B09 T100K library variant (VHH, name in Kabat numbering)
VHH: EVQLVESGGGLVQPGGSLRLSCATTSRAFIRDVFTGWYRRVPGKERELVARIYNGGNTNYADFAKGRFSISRDNAKKMVTLRMSNLKPEDTGVYYCLFSGTINKGREYRSGDYWGQGTLVTVSS
Work on B9 yielded a Mean MFI [12] of 583 MFI.

B10: F0103464B09 T100I library variant (VHH, name in Kabat numbering)
VHH: EVQLVESGGGLVQPGGSLRLSCATTSRAFIRDVFTGWYRRVPGKERELVARIYNGGNTNYADFAKGRFSISRDNAKKMVTLRMSNLKPEDTGVYYCLFSGTINIGREYRSGDYWGQGTLVTVSS
For B10, the Mean MFI [13] was 541 MFI and the Mean MFI [14] was 1310 MFI.

B11: F0103464B09 T100L library variant (VHH, name in Kabat numbering)
VHH: EVQLVESGGGLVQPGGSLRLSCATTSRAFIRDVFTGWYRRVPGKERELVARIYNGGNTNYADFAKGRFSISRDNAKKMVTLRMSNLKPEDTGVYYCLFSGTINLGREYRSGDYWGQGTLVTVSS
In the case of B11, the Mean MFI [15] is reported as 1250 MFI and the Mean MFI [16] is reported as 531 MFI.

B12: F0103464B09 T100E library variant (VHH, name in Kabat numbering)
VHH: EVQLVESGGGLVQPGGSLRLSCATTSRAFIRDVFTGWYRRVPGKERELVARIYNGGNTNYADFAKGRFSISRDNAKKMVTLRMSNLKPEDTGVYYCLFSGTINEGREYRSGDYWGQGTLVTVSS
B12 showed a Mean MFI [17] of 973 MFI and a Mean MFI [18] of 518 MFI.
